From patent publication US20230212587A1, “Mutant Hydroxyphenylpyruvate Dioxygenase Polypeptide, Encoding Gene Thereof and Use Therefor” (Beijing Dabeinong Biotechnology Co., Ltd., priority 2019, published 2023) come the findings set out here.

B1: CyHPPDm-F372V: Cyanobacteria HPPD mutant F372V, SEQ ID NO: 387 (protein)
chain: MEFDYLHLYVDDYQSAHRCYQRQWGFTCVNKIITDQGITGIYQQGQILLLISASESSLSRYADYLQKHPPGVGEVAWQVANWQKIQHQLSELQIETTPVIHPLTKAEGLTFLLWGDVHHSIYPVRSELNQNKTLHGVGLTTIDHVVLNIAADQFTQASQWYQQVFGWSVQQSFTVNTPHSGLYSEALASANGKVQFNLNCPTNNSSQIQTFLANNHGAGIQHVAFSTTSITRTVAHLRERGVNFLKIPTGYYQQQRNSSYFNYASLDWDTLQCLEILLDDQDNTGERLLLQIVSQPCYGVGTLFWEIIERRHRAKGFGQGNFQALYEAVETLEKQLEVP
modifications: CyHPPDm-F372V Amino Acid Sequence
B2: CsHPPDm-F372V: Cucumis sativus HPPD mutant F372V, SEQ ID NO: 379 (protein)
chain: MGKEADFPRAPSEATDGGATASQSEFELQGFDNFIRTNPKSDRFKVKRFHHIEFWCTDATNVARRFSWGLGMQIVAKSDLSTGNMTHASYLLRSGHLCFLFTAPYSPSIAAAQNLTPASTASIPSFDHSVCRSFSGTHGFGARAIALEVEDAEIAFRTSVAHGAKPSCPPIVLENRAVLSEVHLYGDVVLRYISYKNPVSGDNGENKPDEWFLPKFEAMEETASFPLDFGIRRLDHAVGNVPELGPAVSYLKGFTGFHEFAEFTAEDVGTSESGLNSMVLANNEEMVLLPINEPVFGTKRKSQIQTYLEHNEGAGVQHLALMSEDIFRTLREMRKRSSVGGFEFMPSPPPTYYKNLKSRAGDVLTDEQIKECEELGILVDKDDQGTLLQIVTKPVGDRPTIFIEIIQRLGCMMKDEEGKAFQKGGCGGFGKGNFSELFKSIEEYEKTLEAKRVSE
modifications: CsHPPDm-F372V Amino Acid Sequence
B3: BvHPPDm-F372V: Beta vulgaris HPPD mutant F372V, SEQ ID NO: 375 (protein)
chain: MGTLSPQPQTSPSQFKLVGYSNFIRVNPLSDLFPVKRFHHVEFWCGDATNVSRRFSWGLGMPIVAKSDLSTGNSVHASYLLRSGELHFLFTSPYSPSLSSPSSATIPTFSFSLFTSFLTSHGLAVRAVAVEVQDAEAAFHISVSNGASPVSPPIRLHDGVVLSEVHLYGDVVLRYVSTSSVVDGIFLPGFEEMLGESSFQELDFGLRRLDHAVGNVPELAPAIEYVKKFTGFHEFAEFTTEDVGTSESGLNSAVVANNDETVLFPMNEPVYGTKRKSQIQTYLEHNEGAGVQHLALMSEDIFWTLREMRKRSGLGGFEFMPSPPPTYYRNLRNRAADVLSEEQMKECEELGILVDKDDQGTLLQIVTKPIGDRPTMFIEIIQRIGCMMKDEEGKVYQKGGCGGFGKGNFSELFKSIEEYEKTLERKPIADTNAT
modifications: BvHPPDm-F372V Amino Acid Sequence
B4: SlHPPDm-F372V (protein)
chain: MGKQAAAAADDQQLPGDIEDKFKLVGFNHFVRTNPRSDFFTVKRFHHIEFWCGDATNTARRFSWGLGLPIAAISDLSTGNSVHASYLLRSSSSSQLQFLFTAPYSSAISTSSSASIPTFSVSSHRSFTATHGLGVRAIALEVENSRLAFSTCVAHGAKPVSEPVILNDEVVIAEVHLYGDVVLRFVSFLKDSNCFVFLPGFESVEGAQLDYGIRRLDHAVGNVPELGPVVEYIKSFTGFHEFAEFTAEDVGTAESGLNSVVLANNDETVLFPLNEPVYGTKRKSQIQTYLEHNEGAGVQHLALVTEDIFRTLREMRKRSGIGGFEFMPSPPPTYYKNLKTRAGDILSDEQIQECEELGILVDRDDQGTLLQIVTKPVGDRPTIFLEIIQRIGCMLKNEEGELYQKGGCGGFGKGNFSELFKSIEEYEKTLEAKQNTQVAIA
modifications: SlHPPDm-F372V Amino Acid Sequence
B5: AhHPPDm-F372V: Arachis hypogaea HPPD mutant F372V, SEQ ID NO: 385 (protein)
chain: MATAYTYAHAVTYCNSQHNPPIIPILSTNQHPPRVTLPSSIPHFISTITTFNLKHFPSHSLHTVMVTQTQQNAPSSSPELGFKLVGFKNFVRTNPKSDRFKVIRFHHVEFWCTDATNTASRFSWGLGMPIVAKSDLSTGNAVHASYLLRSGDLNFLFSAPYSASIAGDGASASFPSFSASDCHSFAAKHGLAVRAVAIEVEDASAAFSASVANGAKPVSPAVLLDNSVGFAEVHLYGDVVLRYISYSAPTRESNLNPTLRFLPGFEAVEADSSFPELDYGIRRLDHAVGNVPELAPAVNYLKKFTGFHEFAEFTAEDVGTSESGLNSVVLASNDEMVLLPLNEPVYGTKRKSQIETYLEHNEGAGLQHLALVSEDIFRTLREMRKRSTIGGFQFMPSPPPTYYRNLKKRAGDVLSDEQIKECEELGILVDRDDQGTLLQIVTKPVGDRPTIFIEIIQRIGCMLKDEEGKVYQKGGCGGFGKGNFSELFKSIEEYEKTLESRRTA
modifications: AhHPPDm-F372V Amino Acid Sequence
B6: NtHPPDm-F372V: Nicotiana tabacum HPPD mutant F372V, SEQ ID NO: 377 (protein)
chain: MGKLETVTTTSAAAADDSSELTTNFKLVGFKNFIRTNPRSDFFSVKSFHHIEFWCGDATNTARRFSWSLGMPIAAKSDLSTGNSVHASYLLRPVSGSLQFLFTAPYSPSISTPSSAAIPSFSTSTHRSFTTTHGLGVRAVALEVENAYTAFSASVSRGAKPMFEPVTIDEQVAMAEVHLYGDVVLRFVSYLKDADNLVFLPGFEAMDETASYKELDYGIRRLDHAVGNVPELGPVVDYIKRFTGFHEFAEFTAEDVGTAESGLNSMVLANNDETVLLPLNEPVYGTKRKSQIQTYLEHNEGAGVQHLALVTEDIFKTLTEMRKRSGVGGFEFMPSPPPTYYKNLKNRAGDVLSDEQILACEELGILVDRDDQGTLLQIVTKPVGDRPTIFIEIIQRIGCMLKDGKGQVYQKGGCGGFGKGNFSELFRSIEEYEKTLEAKQANQVAAA
modifications: NtHPPDm-F372V Amino Acid Sequence
B7: StHPPDm-F372V: Solanum tuberosum HPPD mutant F372V, SEQ ID NO: 381 (protein)
chain: MGKQAATATATATATADDQQLPADIEDKYKLVGFNNFVRTNPRSDLFNVKRFHHIEFWCGDATNTARRFSWGLGLPIAAKSDLSTGNSVHASYLLRSSSSQLQFLFTAPYSPAISTPSSSSIPTFSVSSHRSFTETHGLGVRAIALEVENSRLAFSTCVSHGAKPVSEPVILNDEVVISEVHLYGDVVLRFVSFLKDSNRFVFLPGFELVEGAQLDYGIRRLDHAVGNVPQLGPVVEYIKSFTGFHEFAEFTAEDVGTAESGLNSVVLANNDETVLFPLNEPVYGTKRKSQIQTYLEHNEGAGVQHLALVTEDIFRTLREMRKRSGIGGFEFMPSPPPTYYKNLKSRAGDILSDEQIKECEELGILVDRDDQGTLLQIVTKPVGDRPTIFLEIIQRIGCMLQNAEGELYQKGGCGGFGKGNFSELFKSIEEYEKTLEAKQNTQVAIA
modifications: StHPPDm-F372V Amino Acid Sequence

The subject of the first assay is Arabidopsis thaliana T1 plants. The assay can be described thus: Topramezone tolerance of transgenic Arabidopsis thaliana T1 plants (pesticide damage grade by bleached leaf area, score, resistance evaluation). The class given is in vivo. Conditions: topramezone 25 g ai/ha (1x); HPPD F372V mutants, Table 7. The essentials:
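Eighteen days after sowing, wild-type and HPPD-transgenic T1 Arabidopsis receive a topramezone spray at 1×, 2× or 4× field rate (25–100 g ai/ha) or water. Seven days later each plant is graded by its proportion of bleached leaf area.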
As to B1, the Resistance evaluation result is “Poorly resistant”.
On to B2, for which the Resistance evaluation entry is recorded as “Poorly resistant”.
In the case of B3, the Resistance evaluation entry was “Poorly resistant”.
Regarding B4, the Resistance evaluation entry is “Poorly resistant”.
Regarding B5, the Resistance evaluation entry is recorded as “Poorly resistant”.
B6: the Resistance evaluation entry is “Poorly resistant”.
The same measure, in the same setting: then B7, with “Poorly resistant”.

The same assay, now with this note: topramezone 100 g ai/ha (4x); HPPD F372V mutants, Table 7.
For the molecule B1, the Resistance evaluation result was “Non-resistant”.
Consider B2, for which the Resistance evaluation entry was “Non-resistant”.
B3: the Resistance evaluation entry was “Non-resistant”.
Turning to B4, the Resistance evaluation entry is listed as “Non-resistant”.
Turning to B5, the Resistance evaluation entry was “Non-resistant”.
Consider B6, for which the Resistance evaluation result was “Non-resistant”.
Turning to B7, the Resistance evaluation result is reported as “Non-resistant”.
